Patent US20160068605A1 (Janssen / Centocor, published 2016)

Experiments:
[1] = target: T1, human CD123 SP2 ECD displayed on pDisplay-transfected cells (human, UniProt P26951 101-305); assay: MSD cell binding on 293F pDisplay cells; fold change over background; parental 293F cells as control
T1 construct: ECD anchored on the surface of stably transfected HEK293 cells; also called hCD123 SP2 cells; pDisplay CD123SP2
T1 sequence: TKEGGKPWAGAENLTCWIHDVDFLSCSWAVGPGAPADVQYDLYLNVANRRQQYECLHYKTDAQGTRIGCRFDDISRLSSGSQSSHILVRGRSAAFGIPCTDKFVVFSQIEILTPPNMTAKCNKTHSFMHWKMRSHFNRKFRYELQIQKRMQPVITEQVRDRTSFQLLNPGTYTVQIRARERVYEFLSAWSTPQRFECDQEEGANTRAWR
Experimental: (§1) The object of the screening assay was to identify antibodies that bound to cells expressing hCD123 SP1 and SP2 as well as cross reactivity with cells expressing cynoCD123 SP1.
(§2) Cells were immobilized and phages were assayed in triplicate. […] 5000 cells per well were plated into a 384 well plate (MA6000, cat. L21XB, MSD) and allowed to adhere for 2 hr. Cells were then blocked with 20% FBS in PBS (Gibco) for 15 mins. Antibody supernatants were then added and left at RT for 1 hr. Cells were washed 3 times with PBS and a ruthenium labeled secondary antibody (Jackson Immuno Research) was then added at 1 μg/mL and incubated for 1 hr at room temperature. A further washing step was then applied and 35 μL per well of MSD Read buffer T (surfactant free) was then added and incubated for 30 min for detection. Plates were then read using Sector Imager 2400 (MSD). Data was normalized to controls and graphed using GraphPad Prism Version 5. A positive binder was determined to be a hit with a signal 3× greater than background (FIGS. 2A, B and C).

[2] = target: T2, Recombinant human CD123 SP1 ECD-His tag protein (human, UniProt P26951 20-305); assay: SPR ProteOn, captured mAb
T2 construct: bought from R&D Systems (#301-R3/CF); biotinylated for some assays; also called rhCD123 SP1; huCD123 ECD SP1
T2 sequence: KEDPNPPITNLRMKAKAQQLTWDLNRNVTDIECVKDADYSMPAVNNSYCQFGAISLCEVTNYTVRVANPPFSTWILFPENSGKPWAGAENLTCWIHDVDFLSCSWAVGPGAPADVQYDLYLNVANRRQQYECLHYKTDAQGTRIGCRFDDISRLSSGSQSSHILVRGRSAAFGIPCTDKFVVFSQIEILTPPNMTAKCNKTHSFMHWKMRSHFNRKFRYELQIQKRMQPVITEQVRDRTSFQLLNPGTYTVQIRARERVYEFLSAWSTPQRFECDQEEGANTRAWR
Experimental: (§3) The biosensor surface was prepared by covalently coupling Goat anti-Human IgG (Fc) to the surface of a GLC chip (BioRad) using the manufacturer instructions for amine-coupling chemistry. […] The RU immobilized also included a goat anti-mouse Fc antibody that was added to capture other antibodies not included in the ones reported here. Since the mixture was 1:1 about 50% of these RU immobilized are expected to be goat anti-human Fc. The kinetic experiments were performed at 25° C. in running buffer (PBS pH 7.4, 0.005% P20, 3 mM EDTA). […] The reference spots (Goat anti-Human IgG (Fc)-modified surface) containing no candidate captured were used as a reference surface. Capture of mAb was followed by 3 min injection (association phase) of antigen at 40 μL/min, followed by 10 min of buffer flow (dissociation phase). […] Data was processed on the instrument software. Double reference subtraction of the data was performed by subtracting the curves generated by buffer injection from the reference-subtracted curves for analyte injections. Kinetic analysis of the data was performed using 1:1 Langmuir binding model with group fit. The result for each mAb was reported in the format of Kₐ (kon or on-rate), Kd (koff or off-rate), KD (Equilibrium dissociation constant) (Table 5).

[3] = target: T3, Recombinant human CD123 SP2 ECD protein (human, UniProt P26951 101-303); assay: SPR ProteOn, captured mAb
T3 construct: also called rhCD123 SP2; CD123 ECD SP2
T3 sequence: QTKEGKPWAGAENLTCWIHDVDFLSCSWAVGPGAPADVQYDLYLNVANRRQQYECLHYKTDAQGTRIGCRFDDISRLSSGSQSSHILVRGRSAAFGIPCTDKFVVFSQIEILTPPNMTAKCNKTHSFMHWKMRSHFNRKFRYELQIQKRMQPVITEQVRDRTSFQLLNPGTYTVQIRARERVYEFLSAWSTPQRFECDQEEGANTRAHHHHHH
Experimental: as §3

[4] = target: T4, cyno CD123 ECD displayed on pDisplay-transfected cells (cynomolgus monkey); assay: MSD cell binding on 293F pDisplay cells; fold change over background; parental 293F cells as control
T4 construct: ECD anchored on the surface of stably transfected HEK293 cells; also called cynoCD123 SP1 cells; cynoCD123 cells
T4 chain: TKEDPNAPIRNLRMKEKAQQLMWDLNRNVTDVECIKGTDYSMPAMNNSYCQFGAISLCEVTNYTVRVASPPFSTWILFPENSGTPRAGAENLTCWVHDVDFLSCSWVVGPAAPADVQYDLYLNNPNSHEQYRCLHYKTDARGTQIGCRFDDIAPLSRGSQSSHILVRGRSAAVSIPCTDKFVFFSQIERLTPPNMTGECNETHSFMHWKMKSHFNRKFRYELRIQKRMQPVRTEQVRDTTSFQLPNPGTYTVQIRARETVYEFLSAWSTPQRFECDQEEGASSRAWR
Experimental: as §1, §2

[5] = target: T5, cell-surface CD3 epsilon on primary cynomolgus T cells (cynomolgus monkey, UniProt Q95LI5 22-198); assay: flow cytometry competition with labeled CD3B146 on T cells
T5 construct: whole, on cells; also called cynomolgus CD3e; Cyno T-cells
Source text: (§4) The format involved competition binding using a fixed concentration of labeled anti-CD3 mAb of known affinity and increasing concentrations of unlabeled test Abs (Ashkenazi A et al. PNAS: 88:10535, 1991.).

[6] = target: T6, cell-surface CD3 epsilon on primary human T cells (human, UniProt P07766 23-207); assay: as above
T6 construct: whole, on cells; part of the CD3/TCR complex on the cells
Source text: as §4

T6 sequence (P07766 23-207): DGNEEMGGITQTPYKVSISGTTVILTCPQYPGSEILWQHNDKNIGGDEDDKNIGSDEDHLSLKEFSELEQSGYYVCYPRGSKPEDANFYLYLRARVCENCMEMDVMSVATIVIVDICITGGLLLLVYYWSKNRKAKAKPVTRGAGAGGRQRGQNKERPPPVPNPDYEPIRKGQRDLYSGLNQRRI
T5 sequence (Q95LI5 22-198): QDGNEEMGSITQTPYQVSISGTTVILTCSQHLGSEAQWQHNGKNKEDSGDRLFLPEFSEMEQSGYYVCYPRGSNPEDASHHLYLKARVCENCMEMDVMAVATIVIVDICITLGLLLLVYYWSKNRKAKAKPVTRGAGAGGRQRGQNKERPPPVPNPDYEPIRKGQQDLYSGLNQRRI

B1: I3RB7 (antibody, IgG1, V domains shown)
VH: QVQLVQSGAEVKKPGSSVKVSCKASGGTFSSYAISWVRQAPGQGLEWMGGIIPIFGTANYAQKFQGRVTITADESTSTAYMELSSLRSEDTAVYYCARGKRWLADAGDFDYWGQGTLVTVSS
VL: not shown
notes: IgG1; also called I3RB07
[1]
  binding result: no binding (tested: 10 µg/mL)
[2]
  Kd: 15.4 nM
  koff: 0.0147 s⁻¹
  kon: 954000 M⁻¹ s⁻¹
[3]
  binding result: no binding (tested: 400 nM)

B2: I3RB34 (antibody, IgG1, V domains shown)
VH: QVQLVQSGAEVKKPGSSVKVSCKASGGTFSSYAISWVRQAPGQGLEWMGGIIPIFGTANYAQKFQGRVTITADESTSTAYMELSSLRSEDTAVYYCARGWSYYRLDYWGQGTLVTVSS
VL: EIVLTQSPATLSLSPGERATLSCRASQSVDKWLAWYQQKPGQAPRLLIYYASNRATGIPARFSGSGSGTDFTLTISSLEPEDFAVYYCQQFDRAPFTFGQGTKVEIK
notes: IgG1; also called 13RB34
[4]
  binding result: binds
[1]
  binding result: no binding (tested: 10 µg/mL)
[2]
  Kd: 56.8 nM
  koff: 0.0283 s⁻¹
  kon: 497000 M⁻¹ s⁻¹
[3]
  binding result: no binding (tested: 400 nM)

B3: I3RB22 (antibody, IgG1, V domains shown)
VH: QVQLVQSGAEVKKPGSSVKVSCKASGGTFSSYAISWVRQAPGQGLEWMGGIIPIFGTANYAQKFQGRVTITADESTSTAYMELSSLRSEDTAVYYCARNLFYWADSVYLDYWGQGTLVTVSS
VL: EIVLTQSPATLSLSPGERATLSCRASQSVNKWLAWYQQKPGQAPRLLIYYASNRATGIPARFSGSGSGTDFTLTISSLEPEDFAVYYCQQGIDWPRTFGQGTKVEIK
notes: IgG1
[4]
  binding result: no binding (tested: 10 µg/mL)
[1]
  binding result: no binding (tested: 10 µg/mL)
[2]
  Kd: 4.12 nM
  koff: 0.00106 s⁻¹
  kon: 257000 M⁻¹ s⁻¹
[3]
  binding result: no binding (tested: 400 nM)

B4: I3RB11 (antibody, IgG1, V domains shown)
VH: QVQLVQSGAEVKKPGSSVKVSCKASGGTFSSYGISWVRQAPGQGLEWMGGIIPIFGTANYAQKFQGRVTITADESTSTAYMELSSLRSEDTAVYYCARDLFSWRYSNFDYWGQGTLVTVSS
VL: not shown
notes: IgG1
[4]
  binding result: no binding (tested: 10 µg/mL)
[1]
  binding result: no binding (tested: 10 µg/mL)
[2]
  Kd: 2.89 nM
  koff: 0.00253 s⁻¹
  kon: 874000 M⁻¹ s⁻¹
[3]
  binding result: no binding (tested: 400 nM)

B5: I3RB38 (antibody, IgG1, V domains shown)
VH: QVQLVQSGAEVKKPGSSVKVSCKASGGTFSSYGISWVRQAPGQGLEWMGGIIPIFGTANYAQKFQGRVTITADESTSTAYMELSSLRSEDTAVYYCARDLMIWRFENFDYWGQGTLVTVSS
VL: not shown
notes: IgG1
[1]
  binding result: no binding (tested: 10 µg/mL)
[2]
  Kd: 0.49 nM
  koff: 0.000434 s⁻¹
  kon: 888000 M⁻¹ s⁻¹
[3]
  binding result: no binding (tested: 400 nM)

B6: I3RB6 (antibody, IgG1, V domains shown)
VH: QVQLVQSGAEVKKPGSSVKVSCKASGGTFSSYAISWVRQAPGQGLEWMGGIIPIFGTANYAQKFQGRVTITADESTSTAYMELSSLRSEDTAVYYCARGLFNWSNVALDYWGQGTLVTVSS
VL: not shown
notes: IgG1; also called I3RB06
[4]
  binding result: no binding (tested: 10 µg/mL)
[1]
  binding result: no binding (tested: 10 µg/mL)
[2]
  Kd: 11.5 nM
  koff: 0.00593 s⁻¹
  kon: 514000 M⁻¹ s⁻¹
[3]
  binding result: no binding (tested: 400 nM)

B7: I3RB24 (antibody, IgG1, V domains shown)
VH: QVQLVQSGAEVKKPGSSVKVSCKASGGTFSSYAISWVRQAPGQGLEWMGGIIPIFGTANYAQKFQGRVTITADESTSTAYMELSSLRSEDTAVYYCARHTDAWGYRLDYWGQGTLVTVSS
VL: not shown
notes: IgG1
[4]
  binding result: no binding (tested: 10 µg/mL)
[1]
  binding result: no binding (tested: 10 µg/mL)
[2]
  Kd: 201 nM
  koff: 0.226 s⁻¹
  kon: 1.13e+06 M⁻¹ s⁻¹
[3]
  binding result: no binding (tested: 400 nM)

B8: I3RB12 (antibody, IgG1, V domains shown)
VH: QVQLVQSGAEVKKPGSSVKVSCKASGGTFSSYAISWVRQAPGQGLEWMGGIIPIFGTANYAQKFQGRVTITADESTSTAYMELSSLRSEDTAVYYCARADRVWDYYLDYWGQGTLVTVSS
VL: not shown
notes: IgG1
[4]
  binding result: no binding (tested: 10 µg/mL)
[1]
  binding result: no binding (tested: 10 µg/mL)
[2]
  Kd: 9.61 nM
  koff: 0.0078 s⁻¹
  kon: 812000 M⁻¹ s⁻¹
[3]
  binding result: no binding (tested: 400 nM)

B9: I3RB29 (antibody, IgG1, V domains shown)
VH: QVQLVQSGAEVKKPGSSVKVSCKASGGTFSSYAISWVRQAPGQGLEWMGGIIPIFGTANYAQKFQGRVTITADESTSTAYMELSSLRSEDTAVYYCARDSRIWSFSLDYWGQGTLVTVSS
VL: DIQMTQSPSSLSASVGDRVTITCRASQSIGEWLNWYQQKPGKAPKLLIYAASSLQSGVPSRFSGSGSGTDFTLTISSLQPEDFATYYCQQYYHFPLTFGQGTKVEIK
notes: IgG1
[1]
  binding result: no binding (tested: 10 µg/mL)
[2]
  Kd: 5.9 nM
  koff: 0.00132 s⁻¹
  kon: 224000 M⁻¹ s⁻¹
[3]
  binding result: no binding (tested: 400 nM)

B10: CD123 null 4 (bispecific antibody, human IgG4 S228P, lambda, F234A L235A)
heavy: EVQLVESGGGLVQPGGSLKLSCAASGFTFNTYAMNWVRQASGKGLEWVGRIRSKYNAYATYYAASVKGRFTISRDDSKNTAYLQMNSLKTEDTAVYYCTRHGNFGNSYVSWFAYWGQGTLVTVSSASTKGPSVFPLAPCSRSTSESTAALGCLVKDYFPEPVTVSWNSGALTSGVHTFPAVLQSSGLYSLSSVVTVPSSSLGTKTYTCNVDHKPSNTKVDKRVESKYGPPCPPCPAPEAAGGPSVFLFPPKPKDTLMISRTPEVTCVVVDVSQEDPEVQFNWYVDGVEVHNAKTKPREEQFNSTYRVVSVLTVLHQDWLNGKEYKCKVSNKGLPSSIEKTISKAKGQPREPQVYTLPPSQEEMTKNQVSLTCLVKGFYPSDIAVEWESNGQPENNYKTTPPVLDSDGSFLLYSKLTVDKSRWQEGNVFSCSVMHEALHNHYTQKSLSLSLGK
light: QAVVTQEPSLTVSPGGTVTLTCRSSTGAVTTSNYANWVQQKPGQAPRGLIGGTNKRAPGTPARFSGSLLGGKAALTLSGAQPEDEAEYYCALWYSNLWVFGGGTKLTVLGQPKAAPSVTLFPPSSEELQANKATLVCLISDFYPGAVTVAWKADSSPVKAGVETTTPSKQSNNKYAASSYLSLTPEQWKSHRSYSCQVTHEGSTVEKTVAPTECS
VH: not shown
VL: not shown
notes: also called B21M IgG4 x CD3B220
[5]
  Kd: 36.8 nM
[6]
  Kd: 48.6 nM
